Patent US20040043949A1

Key:
[1] = target: Mod.Caspase 3/172(NS5A/B) (human) (UniProt P42574); assay: cell-based or functional assay
[2] = target: modified BID with an HCV NS3 cleavage site (human) (UniProt P55957); assay: cell-based or functional assay

Substance | cell death, FACS analysis of living EGFP positive CHOP cells, (+) NS3 Protease [1] | cell death, FACS analysis of living EGFP positive CHOP cells, (+) NS3 Protease [2] | AnnexinV positive H9C2 cells, FACS, 24 hours (% more cells than control) [2] | AnnexinV positive H9C2 cells, FACS, 24 hours, no VAD-fmk [2]
HCV NS3/NS4A protease (from UniProt P27958 1027-1657; P27958 1658-1711) (enzyme) | > 30 % cell death | > 30 % cell death |  | 
single-chain HCV protease (NS4A-NS3) (from UniProt P27958 1678-1689; P27958 1029-1207) (enzyme) |  |  | 50 | 60%
